Target: TEMPOL-122-αS (N122C α-synuclein spin-labelled at position 122) (UniProt P37840)
Assay: CW-EPR titration (site-directed spin labelling); apparent; TEMPOL-122-αS kept at 50 μM, poly-cation titrated at increasing molar ratios; LLPS buffer without crowder (no PEG); 25 °C; band III/band II amplitude fitted to an approximate model with n identical and independent binding sites

Kd: 5 µM
Substance: poly-L-lysine of 100 residues (peptide)

Reference: PMC9357037
